Results as given in patent US20220235356.

Each sequence was assayed against KRAS G12D (GMPPNP-loaded) G12D (Homo sapiens) (UniProt P01116) (assay: inhibition). Conditions: Raf-1 binding remaining vs no aptamer, average of four aptamers at 5x KRAS; PBS, 37 C, ELISA.

activity, 50%:
NNNNNNNNNNNNNNNCATANNNNNCGGTACGTCCGNNTATGNGTGGGNGGTAAGGGAGACCNCNTGACTAGTACANNNCCACNNNN [NBK2], NCATANNNNNCGGTACGTCCGNNTATGNGTGGGNGGTAAGGGAGACCNCNTGACTAGTACANNNCCACN [NBK2-1], NNNNNNNNNNNNGGNCATNNGATCATGNNCCGGGTTCGGNTGGGGGGNNNNNNCATGATCTACTTGACTAGTANATGNCCNNNNNN [NBK1], NNNNNNNNGATCATGNNCCGGGTTCGGNTGGGGGGNNNNNNCATGATCTACTTGACTAGTNNN [NBK1-1]
